Test [1] has as its target BmGr9 silkworm gustatory receptor (Bombyx mori (silkworm)). Kind of test: cross-linking; HEK293T cells expressing BmGr9 incubated with various concentrations of disuccinimidyl suberate (DSS) at 37 °C for 15 min; lysed in 0.1% RIPA buffer; SDS-PAGE with 5 M urea; Western blot with anti-BmGr9 antibody. On the technique in general: Immunoblotting shows a protein as a band on a membrane.

The target in test [2] is meGFP-BmGr9 (Bombyx mori (silkworm)). Kind of test: single-molecule imaging, counting of photobleaching steps (TIRF microscopy); meGFP-BmGr9 on the plasma membrane of Xenopus oocytes; bleaching steps at single spots (n = 569) fitted with binomial distributions of tetramer, pentamer and hexamer models.
The target in another test is T1, BmGr9 (Bombyx mori, UniProt B3GTD7, I440C).
T1 construct: gene Gr9; full-length
T1 sequence (B3GTD7 1-449 I440C): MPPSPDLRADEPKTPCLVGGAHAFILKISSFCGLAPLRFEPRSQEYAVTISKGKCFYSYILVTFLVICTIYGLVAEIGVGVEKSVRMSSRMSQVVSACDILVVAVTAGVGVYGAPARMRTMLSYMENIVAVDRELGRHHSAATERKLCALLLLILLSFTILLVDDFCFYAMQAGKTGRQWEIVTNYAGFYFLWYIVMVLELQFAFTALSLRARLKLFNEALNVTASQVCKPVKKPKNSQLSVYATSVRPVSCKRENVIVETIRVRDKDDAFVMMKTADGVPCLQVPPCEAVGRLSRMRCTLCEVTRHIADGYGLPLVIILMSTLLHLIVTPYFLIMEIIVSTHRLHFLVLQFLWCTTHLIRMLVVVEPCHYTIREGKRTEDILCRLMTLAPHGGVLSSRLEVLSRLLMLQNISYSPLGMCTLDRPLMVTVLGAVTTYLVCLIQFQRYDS
Description: two-electrode voltage clamp in Xenopus oocytes, […] MTSET, cysteine modification. The format is cell-based. On the technique in general: Two-electrode voltage clamp holds a large cell at a set potential and records current.

Several values for one entry are separate records, joined by “and”; a condition that tells them apart may be missing. Equal values may be shown once.

By stoichiometry N is commonly meant a count of units in the complex or per binding partner. Consider BmGr9 silkworm gustatory receptor, for which the stoichiometry N in test [1] was 2 and 4.

For meGFP-BmGr9 (receptor), the stoichiometry N in test [2] was 4.

Take `C[N+](C)(C)CCSS(C)(=O)=O` [MTSET, 2-(trimethylammonium)ethyl methanethiosulfonate, bromide]: at BmGr9, the “two-electrode voltage clamp in Xenopus oocytes, 2.5 mM MTSET, cysteine modificat” value is “whereas the response of I440C was markedly inhibited by MTSET application”.
